Measurements taken from the supplement of paper PMC9170038.

System: MS2 coat protein
Experiment: apparent KD of MS2 coat protein; designed switch direction (-1 OFF switch, 1 ON switch): -1; higher = weaker reporter binding
Outline: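 For each design, the apparent KD is the median over clusters of curves fitted to normalised cluster fluorescence. Clusters held RNA switches with common flanks, transcribed on Illumina chips by stalled E. coli RNA polymerase. These were titrated with SNAP-549-labelled MS2 coat protein, doubling from 0.7 or 1.5 nM to 3 µM, without input, with 200 uM small-molecule ligand, or with an oligonucleotide input.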

[1] = input ligand: microRNA oligo, concentration not stated
[2] = Eterna round: R95, input ligand: FMN 200 uM
[3] = Eterna round: R95, input ligand: microRNA oligo, concentration not stated
[4] = Eterna round: R95, input ligand: none

Sequence	apparent KD of MS2 coat protein (input ligand: FMN 200 uM)	apparent KD of MS2 coat protein (input ligand: none)	also measured
ACAUGAGGAUCACCCAUGUGAAACCAAUGGCUGACUUUGAGCUAGGAUAUUUGUGCAUAUCAAACAAAGAAGGAGCAUUACUGG [Deportation 98 - Jieux - Exclusion NG 3] (Eterna round: R96, puzzle: Exclusion NG 3)	–	–	apparent KD of MS2 coat protein [1]: 30.2 nM
AUCGUAGCAGGAUAUCCGGAGAUUGACAUGAGGAUCACCCAUGUGGUCAUGCCAGCCAAUGGAGAAGGGUUUCGGU [Eternabot (L1) Solution 49] (Eterna round: R97, puzzle: Exclusion 5)	618 nM	637 nM	–
AGUAUGUCAGGAUAUCUCGGGUAGCCCACAACGACUACCGAAGAGAAGGGACAUGAGGAUCACCCAUGUACCAU [EX4 B.15] (Eterna round: R97, puzzle: Exclusion 4)	29.9 nM	34.3 nM	–
UACAUGAGGAUCACCCAUGUUUUGUCGUGUAUGGUAUUUAUCUAGGAUAUCAAUUUAAUUAUUUAUGAGAAGGAGAAUAUUAAU [JMF's solution 17] (Eterna round: R96, puzzle: Exclusion NG 3)	–	–	apparent KD of MS2 coat protein [1]: 29.8 nM
AAGUACCGUCACGAUAGUGAUGGUACAACAAGCAAAUGUACAUGAGGAUCACCCAUGUCCUCUUUUGCUCGUCUUAU [Sensor 3 - 94] (puzzle: Sensor v3, turn-off variant 2)	–	–	apparent KD of MS2 coat protein [2]: 53.3 nM; apparent KD of MS2 coat protein [3]: 28.9 nM; apparent KD of MS2 coat protein [4]: 53.8 nM
UGUUCGGUAGGAUAUACAUCGCUGAAGUGGCGGUGACUUCAACAUGAGGAUCACCCAUGUAGAAGGGCCGGCUC [EX2 C.4] (Eterna round: R97, puzzle: Exclusion 2)	17.3 nM	16.5 nM	–
UAUGGUUAAGUCAGGAUAUGCUCGUAGAGGUCUAUGCAGAAGGGACAUGAGGAUCACCCAUGUAUGGUCGUGUU [Ex4 #67] (Eterna round: R97, puzzle: Brourd's mod of Exclusion 4)	161 nM	67 nM	–
AACGUGUAAGGAUAUCUGCUUAUGCUCAGCGAUACGCUGAUAGAGAAGGUACAUGAGGAUCACCCAUGUUCCAA [EX4 A.17] (Eterna round: R97, puzzle: Exclusion 4)	20.4 nM	17.5 nM	–
AAAUAACAAGCAAGAUCCUACAUGAGGAUCACCCAUGUGCUCGUCUUGUAAAGUACUAUCACGAAAGUGAUAGUACA [Sensor 3, v1 - 12] (puzzle: Sensor v3, turn-off variant 1)	–	–	apparent KD of MS2 coat protein [2]: 23.4 nM; apparent KD of MS2 coat protein [3]: 219 nM; apparent KD of MS2 coat protein [4]: 23 nM
GUAAGUUCAGGAUAUGAUGAAUUAAACAUGAGGAUCACCCAUGUAGAUCCUGAAUUAACAUCAGAAGGGAAUAUUU [JL-ex5-4.53 Brourd mod] (Eterna round: R97, puzzle: Exclusion 5)	22.2 nM	15.5 nM	–
GUUUGCAGACGGAGAUCCUACAUGAGGAUCACCCAUGUCUCACUAGCUUUUUGCUCGUCUUAUCCUCCUCUGUUCUC [Elimod 27 - Jieux - Sensor, turn-off variant 1] (Eterna round: R97, puzzle: Sensor, turn-off variant 1)	260 nM	303 nM	–
GCCGGAGCAGGAUAUCUAAUAUAUCACAUGAGGAUCACCCAUGUCCAGCGAAAGCUGGAGGGAGAAGGGCUCUGGC [Fiskers Ex 5 - 22] (Eterna round: R96, puzzle: Exclusion 5)	47 nM	143 nM	apparent KD of MS2 coat protein [1]: 99.1 nM
GCGCACUAAGUGAGGAUAUCGUUUAUUUAUAGGAUCGAGAAGGCACAUGAGGAUCACCCAUGUUAAACGUGCGC [JR_BMOE4_Sub100] (puzzle: Brourd's mod of Exclusion 4)	–	–	apparent KD of MS2 coat protein [3]: 15.7 nM
CAAAAGAAAGGAUAUACUUGAGGAUCACCCAAGUAUGCCCGCUGAAGCGGGCCCUUGAGUAGAAGGUUCAUAAA [Ened] (Eterna round: R97, puzzle: Exclusion 3)	33.2 nM	15.6 nM	–
